According to the supplement of paper PMC11865577:

Experiments:
Experiment in all cases: pull-down binding Z-score (relative to library population); higher = stronger binding
[1] = test system: TO-N3-2 (biotin conjugate); conditions: RNA library: Library-2
How it was run: (§1)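 To score binding, a beads-only signal was subtracted, barcoded replicate probes were averaged with the highest and lowest dropped, and the value was converted to a Z-score using the library mean and standard deviation. The input was 1 μg of Cy5- or Cy3-end-labelled RNA library, heat-folded in phosphate/NaCl/KCl buffer and mixed for 60 min at 25 °C with streptavidin beads carrying 100 pmol of biotin-conjugated small molecule. Bound RNA was eluted in hot SDS and hybridised to a DNA barcode microarray at 55.5 °C for 20 h.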

[2] = test system: TO-3-N3 (biotin conjugate); conditions: RNA library: Library-2
How it was run: as §1

[3] = test system: G-clamp-N3 (biotin conjugate); conditions: RNA library: Library-1 (pre-miRNA loops + repeats)
How it was run: as §1

TO-N3 (biotin conjugate) = conditions: RNA library: Library-2
How it was run: as §1

[4] = test system: TO-3-N3-2 (biotin conjugate); conditions: RNA library: Library-2
How it was run: as §1

Row | Sequence | pull-down binding Z-score [1] | pull-down binding Z-score [2] | pull-down binding Z-score [3] | pull-down binding Z-score (TO-N3 (biotin conjugate)) | pull-down binding Z-score [4]
1 | CUUCCUGAGCACGCUCAUGAUGAGCAAACUGAGCCUCUAAG [hsa-mir-3653] | 0.429 | 0.463 | -0.859 | 0.596 | 0.277
2 | ACGAUAUAGGUAUGUAUGUAUGUAUGUAUAAAAGCAGGGCAGUAUAUAUAUCGU [hsa-mir-4536-2] | 0.482 | 0.847 | 1.53 | 0.862 | 0.723
3 | AAAAUGUUUGUCAUAAACCGUUUU [hsa-mir-335] | -0.934 | -0.185 | -0.914 | -0.158 | -0.302
4 | CUCCUAUUGAAAAUGAACAGGAG [hsa-mir-873] | -0.875 | -0.0676 | -0.315 | -0.285 | -0.299
5 | CUGUGGUUUGCUGGCUGCCUCAG [hsa-mir-6736] | 0.776 | 0.2 | -0.566 | 0.467 | -0.353
6 | GGUUUCUUAAAAUGGAAUCU [hsa-mir-1255b-1] | -0.251 | -0.382 | 0.385 | -0.413 | 0.0245
7 | GCCAUGGAAAGUAAUGGC [hsa-mir-548ax] | 0.319 | -0.0453 | 0.538 | -0.269 | -0.112
8 | CAAUCACAUGUAAUUAGGUGUGAUUG [hsa-mir-510] | -1.29 | -0.789 | 1.4 | -1.09 | -0.773
9 | UUUUGCUGUUACUUUUAAUGGCAAAA [hsa-mir-548az] | -1.3 | -0.418 | -0.982 | -0.752 | -0.34
10 | GGUGGGCCUCUGCUCUGGCCCCUCC [hsa-mir-1343] | 0.301 | 0.0146 | 0.11 | 0.0649 | -0.315
11 | CGUAGGCGUUAUGAUUUCUGACCUAUG [hsa-mir-379] | 0.473 | -0.513 | -0.994 | 0.0365 | -0.261
12 | CUUUUAUAUCAAGGCACAUAAAAG [hsa-mir-3910-1] | -1.17 | -0.493 | -1.7 | -0.626 | -0.271
13 | AGAAACCUACUUAUUACAUAGUUUACAUAAGAAGCGUGAU [hsa-mir-1322] | -0.00549 | -0.129 | -0.594 | 0.0288 | -0.0921
14 | UUAUUUGAGAUGAGUUACAUCUUGGAGG [hsa-mir-1204] | -0.536 | 0.0122 | -0.564 | -0.0949 | -0.295
15 | CAGAGGCAUCGGGUCAG [hsa-mir-4746] | 1.35 | 0.807 | 1.75 | 1.19 | 0.516
16 | CAGCCAUGACCUGACCUUCUGUCUG [hsa-mir-4677] | 0.513 | -0.163 | -0.499 | -0.0686 | -0.165
17 | CCUGACAGACAGCCUGAUAGACAGG [hsa-mir-4661] | 0.908 | 2 | -0.998 | 1.96 | 0.168
18 | GCAGCUAGUAUUCUCACUCCAGUUGC [hsa-mir-153-1] | 0.592 | -0.447 | -1.31 | -0.204 | -0.655
19 | UCUGCUUUGAUGAAAUAAAGCAGA [hsa-mir-4773-2] | -1.05 | -0.145 | -0.541 | -0.206 | -0.423

Row | Sequence | pull-down binding Z-score [1] | pull-down binding Z-score [2] | pull-down binding Z-score [3] | pull-down binding Z-score (TO-N3 (biotin conjugate)) | pull-down binding Z-score [4]
20 | CAGUGGCAGAUUUUCCCAUAG [hsa-mir-4727] | -0.00285 | -0.543 | -1.12 | -0.439 | -0.261
21 | CUGAGGACAUGCAGUUUCAG [hsa-mir-7702] | -0.304 | -0.471 | 0.946 | -0.651 | -0.579
22 | GGGGUCUUGCUCUAUU [hsa-mir-6088] | 0.111 | 0.523 | 0.123 | 0.572 | 0.136
23 | UUUUAUCAUUACUUUUAAUGGCAAAA [hsa-mir-548f-2] | -0.404 | 1.12 | 0.854 | 0.761 | 0.834
24 | CCCGGAUACCUCAGAAAUUCGG [hsa-mir-760] | 0.267 | -0.07 | -0.822 | -0.0213 | -0.461
25 | GAGUUUGGAAUUAAAAUCAAAACC [hsa-mir-181a-1] | 0.419 | -0.619 | -0.118 | -0.398 | -0.129
26 | GGGCGGAACACCCAGCCCC [hsa-mir-4417] | 0.785 | -0.4 | -1.31 | -0.21 | -0.246
27 | CCAGGUUCCAUGUGAUGCUGAA [hsa-mir-6806] | 0.575 | -0.162 | 0.154 | 0.316 | 0.299
28 | GAAGCUCCUAUAGCUCCUGUAGCUUC [hsa-mir-578] | 0.587 | 0.48 | -0.978 | 0.407 | 0.166
29 | AUUGGAUGGAGUCAGGUCUCUAAU [hsa-mir-200b] | 0.568 | -0.126 | 0.359 | 0.26 | 0.101
30 | CUUACUGUACACGUGGCUGGCAAG [hsa-mir-4428] | 1.09 | -0.0149 | -0.412 | 0.588 | 0.108
31 | GGACAGGGAUUCUUUUCACUGUU [hsa-mir-599] | 0.0602 | -0.0902 | 1.08 | 0.141 | 0.0302
32 | CUGUCUGUUGUAUAAAAGAAAAGAUCG [hsa-mir-517a] | 1 | 0.157 | -0.46 | 0.594 | 0.743
33 | AACAGCAGGAUUGGCUGUAGCUGUU [hsa-mir-2117] | 0.369 | 0.357 | 0.593 | 0.185 | -0.324
34 | UUGUGUGGUAUCCGUAUAGUCACAG [hsa-mir-10b] | -0.0857 | -0.416 | -0.0547 | -0.277 | -0.634
35 | AGGCCGACGAGCAGCGCAUCCUCUUACCCGGCUA [hsa-mir-138-2] | 1.95 | 0.181 | -1.48 | 1.11 | 0.171
36 | UGUUCAUGUCUCUCUGUGCACAGGGGACGAGAGUCA [hsa-mir-4420] | 0.762 | -0.612 | 0.39 | -0.35 | -0.232
37 | GGGCUGCCCGGGCCGGUCGACCAGCGCGCCGUAGCUCC [hsa-mir-6724-2_6724-3_6724-1_6724-4] | 2.24 | 0.0652 | 0.0384 | 1.03 | -0.0157
